{"source": "patent US9045559B2", "about": "“Method for screening inhibitors of interleukin-32 (IL-32)” (Yeda Research and Development Co. Ltd, priority 2005, dated 2015)", "molecules": {"B1": {"name": "MNEI: a 42 kDa serpin superfamily member (protein, UniProt P30740 1-379, looked up)", "Leukocyte elastase inhibitor": "MEQLSSANTRFALDLFLALSENNPAGNIFISPFSISSAMAMVFLGTRGNTAAQLSKTFHFNTVEEVHSRFQSLNADINKRGASYILKLANRLYGEKTYNFLPEFLVSTQKTYGADLASVDFQHASEDARKTINQWVKGQTEGKIPELLASGMVDNMTKLVLVNAIYFKGNWKDKFMKEATTNAPFRLNKKDRKTVKMMYQKKKFAYGYIEDLKCRVLELPYQGEELSMVILLPDDIEDESTGLKKIEEQLTLEKLHEWTKPENLDFIEVNVSLPRFKLEESYTLNSDLARLGVQDLFNSSKADLSGMSGARDIFISKIVHKSFVEVNEEGTEAAAATAGIATFCMLMPEENFTADHPFLFFIRHNSSGSILFLGRFSSP"}, "B2": {"name": "urinary PR-3: human Proteinase-3 (28-32 kDa) affinity purified from human urine on an IL-32 column, elution fraction 3 (protein)", "chain": "IVGGHEAQPHSRPYMASLQMRGNPGSHFCGGTLIHPSFVLTAAHCLRDIPQRLVNVVLGAHNVRTQEPTQQHFSVAQVFLNNYDAENKLNDVLLIQLSSPANLSASVATVQLPQQDQPVPHGTQCLAMGWGRVGAHDPPAQVLQELNVTVVTFFCRPHNICTFVPRRKAGICFGDSGGPLICDGIIQGIDSFVIWGCATRLFPDFFTRVALYVDWIRSTLR"}, "B3": {"name": "commercial PR-3: commercially available human neutrophil derived PR-3 (Athens Research and Technology) (protein)", "chain": "B2 chain"}, "B4": {"name": "PR-3: granule serine protease, source (urinary or commercial) not stated at these places (protein)", "chain": "AEIVGGHEAQPHSRPYMASLQMRGNPGSHFCGGTLIHPSFVLTAAHCLRDIPQRLVNVVLGAHNVRTQEPTQQHFSVAQVFLNNYDAENKLNDVLLIQLSSPANLSASVATVQLPQQDQPVPHGTQCLAMGWGRVGAHDPPAQVLQELNVTVVTFFCRPHNICTFVPRRKAGICFGDSGGPLICDGIIQGIDSFVIWGCATRLFPDFFTRVALYVDWIRSTLRRVEAKGRP"}, "B5": {"name": "VAAYYEEQHPELTPLLEKERDGLRCRGNRSPVPDVEDPATEEPGESFCDKSYGAPR GDKEELTPQKCSEPQSSK (protein, listed as Homo sapiens)", "chain": "VAAYYEEQHPELTPLLEKERDGLRCRGNRSPVPDVEDPATEEPGESFCDKSYGAPRGDKEELTPQKCSEPQSSK", "notes": "C-terminal fragment of IL-32 generated by PR-3"}, "B6": {"name": "IL-32: recombinant human IL-32α produced in E. coli, about 20 kDa (protein)", "chain": "MCFPKVLSDDMKKLKARMHQAIERFYDKMQNAESGRGQVMSSLAELEDDFKEGYLETVAAYYEEQHPELTPLLEKERDGLRCRGNRSPVPDVEDPATEEPGESFCDKSYGAPRGDKEELTPQKCSEPQSSK"}}, "key": {"[1]": {"target": "T1, PR-3 (Homo sapiens, UniProt P24158)", "T1 sequence (P24158 28-248)": "B2 chain", "conditions": "cited from earlier work; for kI for PR-3: Kam, 1992"}, "[2]": {"test_system": "IL-32 responsive cells", "assay": "Biological activity of IL-32 and its proteolytic fragments (summary statement referring to Example 8)", "assay_type": "cell-based", "conditions": "for biological activity compared to the intact IL-32 protein: fragments generated by PR-3 cleavage", "excerpt": "The cleavage of IL-32 and the consequent enhancement of the biological activity were both blocked by the action of PMSF.\nFor the purpose of the present description the expression “biological activity of IL-32” refers inter alia to at least one of the following biological properties:\n(i) induction of MIP-2, (ii) induction of TNF, and (iii) induction of IL-8."}, "[3]": {"target": "T2, PR-3 (Homo sapiens, UniProt P24158)", "T2 construct": "tissue Athens Research and Technology", "T2 sequence (P24158 28-248 limits assumed)": "B2 chain", "assay": "Inhibition of the proteolytic activity of PR-3 by PMSF (cleavage of 125I-IL-32)", "assay_type": "biochemical", "conditions": "PR-3 pre-incubated with PMSF 1 mM, 10 min at 37° C.; then 1 and 5 min with 125I-IL-32", "experimental": "Lanes 1-4 show ^125I-IL-32 following incubation with urinary PR-3 for 1 and 5 min., either not treated (Lanes 1 and 2) or pre-treated with PMSF (Lanes 3 and 4). Lanes 7-10 show ^125I-IL-32 following incubation with commercial PR-3 for 1 and 5 min., either not treated (Lanes 9 and 10) or pre-treated with PMSF (Lanes 7 and 8). Molecular weight markers (in kDa; lane 5) are indicated at the right side.\nThe experiment presented in FIG. 6 was performed as described in examples 5 and 6, except that PR-3 was pre-incubated with PMSF (final concentration of 1 mM, 10 min at 37° C.) prior to the incubation with ^125I-IL-32."}, "[4]": {"target": "T3, ^125I-IL-32 (Homo sapiens, UniProt P24001)", "T3 construct": "made in house; host or cells: E. coli (IL-32α)", "T3 sequence (P24001 1-131 isoform P24001-4)": "B6 chain", "T3 sequence (P24158 28-248 partner limits assumed)": "B2 chain", "assay": "Kinetics of degradation of 125I-IL-32 by urinary and commercial PR-3 (SDS-PAGE, autoradiography)", "assay_type": "biochemical", "experimental": "After 1 minute of incubation with PR-3 the 20 kDa IL-32 (Lane 1) was cleaved into two cleavage products of 16 and 13 kDa (Lane 2). After 5 min. (Lane 3) the band corresponding to the intact IL-32 disappeared and the cleavage products remained stable for at least 60 min. (lanes 3, 4, 6, and 7). The resulting ^125I-IL-32 fragments of apparent MW of 20 kDa, 16 kDa and 13 kDa are indicated on the left side of the FIG.\nThe experiment was carried out essentially as indicated in FIG. 4 (Example 5) except, that incubation of PR-3 and IL32 was limited to up to 5 minutes and that both urinary and commercial PR-3 were used. Urinary (Lines 1-3) or commercial PR-3 (Lines 5-7) were incubated with ^125I-IL-32 for 0, 1 and 5 minutes.\nAffinity purified urinary PR-3 (elution 3 fraction from Example 1, FIG. 1, 50 μl) was added to ^125I-IL-32 (250,000 cpm in 10 μl of gelatin solution) and incubated at 37° C. for 0, 1, 5, 15, 30, and 60 min. (FIG. 4). Degradation was stopped by the addition of SDS-PAGE sample buffer and by boiling for 10 min. Samples containing ^125I-IL-32 and PR-3 incubated at different periods of time (0-60 min.) were resolved on 12% SDS-PAGE under reducing conditions. The gel was dried and autoradiographed. The results summarized on FIG. 4 show the reduction in the 20 kDa band representing intact IL-32 (FIG. 4, lane 1) and the increase in the levels of a 16 and 13 kDa IL-32 cleavage products after a 1-minute incubation with PR-3 (FIG. 4, lane 2).\nUrinary PR-3 or commercial PR-3 (Athens Research and Technology) were incubated with ^125I-IL-32 for 0, 1 and 5 min. Digestion was stopped by the addition of SDS-PAGE sample buffer and by boiling for 10 min. The samples were resolved on SDS-PAGE under reducing conditions. The gel was dried and autoradiographed. […] This difference is probably due to a different specific activity of urinary vs. commercial PR3."}, "[5]": {"test_system": "Raw 264.7 cells", "assay": "MIP-2 secretion by mouse macrophage Raw 264.7 cells stimulated with IL-32 or PR-3-pretreated IL-32", "assay_type": "cell-based", "conditions": "IL-32 20 or 200 ng/ml; PR-3 100 ng/ml, 5 min pretreatment; 16-20 h; polymyxin B 5 μg/ml", "experimental": "Mouse macrophage Raw 264.7 cell line were seeded in a 96 well plate and incubated with IL-32 (20 or 200 ng/ml), IL-32 pretreated with PR-3 (100 ng/ml) for 5 min. or with PR-3 alone as the a control, and MIP-2 secreted into the cell culture medium was measured. […] PR-3 alone had no effect on the cells.\nMouse macrophage Raw 264.7 cell line (American Type Culture Collection, ATCC) was maintained in RP MI-1640 medium containing 10% FCS. Bioassays were performed in 96 well plates. Briefly, Raw cells (5×10^5/ml, 0.1 ml/per well) were seeded and cultured until cells adhered to the plate. The medium was removed and the cells were then stimulated with fresh medium (without FCS) containing different concentration of IL-32 or IL-32 pre-treated with PR-3 for 5 min at room temperature in the presence 5 μg/ml of the LPS blocker polymyxin B (Bedford Laboratories, Bedford, Ohio). The plates were incubated at 37° C. with 5% CO2 for 16-20 h and then the culture supernatants were collected to measure MIP-2 released by the cell culture."}, "[6]": {"test_system": "human peripheral blood mononuclear cells (PBMC)", "assay": "IL-8 secretion by human PBMC stimulated with IL-32 or PR-3-pretreated IL-32", "assay_type": "cell-based", "conditions": "IL-32 20 or 200 ng/ml; PR-3 100 ng/ml, 5 min pretreatment", "experimental": "Human PBMC cells were seeded in 96 well plates and incubated with IL-32 (20 or 200 ng/ml), IL-32 pretreated with PR-3 (100 ng/ml) for 5 min. or with PR-3 alone as the a control. The content of IL-8 into the cell culture medium was measured.\nSimilar enhancement of IL-32 activity by pre-treatment with PR-3 was shown in an experiment carried out with human peripheral blood mononuclear cells (PBMC). PBMC were prepared as previously described [Kim, 2005 #36] and seeded at a concentration of 5×10^5 cells per well in 96 well plates. The experimental setting of stimulation with IL-32 and IL-32 pre treated with PR-3 was identical to that described above for the mouse Raw cells. After stimulation of the human PBMC cells with either IL-32 or IL-32 pre treated with PR-3, the culture supernatants were collected to measure human IL-8 released by the cells."}}, "note": "“Also recorded” adds a separate entry of the source. No end group written: not given here."}
{"molecule": "Nc1ccc2c(Cl)c(OCCBr)oc(=O)c2c1", "note": "[7-amino-4-chloro-3-(2-bromoethoxy) isocoumarin]", "values": [{"measurement": "kI for PR-3", "setting": "[1]", "result": 4700, "unit": "M⁻¹ s⁻¹"}]}
{"molecule": "MCFPKVLSDDMKKLKARMHQAIERFYDKMQNAESGRGQVMSSLAELEDDFKEGYLET (listed as Homo sapiens) [13 kDa (SEQ ID NO: 1), supposed N-terminal fragment of IL-32 generated by PR-3]", "values": [{"measurement": "biological activity compared to the intact IL-32 protein", "setting": "[2]", "result": "enhanced biological activity"}]}
{"molecule": "Elafin: a human skin derived peptide that inhibits human leukocyte elastase (AQEPVKGPVSTKPGSCPIILIRCAMLNPPNRCLKDTDCPGIKKCCEGSCGMACFVPQ; ends and bridges not checked; cysteine pairing not given here; UniProt P19957 61-117, looked up)", "values": [{"measurement": "IC50", "setting": "[1]; Wiedow, 1991, Zani, 2004", "result": 9.5, "unit": "nM"}, {"measurement": "potency compared with antileukoprotease and eglin C", "setting": "[1]; inhibition of PR-3", "result": "more than 100 fold"}]}
{"molecule": "O=S(=O)(F)Cc1ccccc1", "note": "[PMSF, phenyl methyl sulfonyl fluoride]", "values": [{"measurement": "cleavage of IL-32 by urinary and commercial PR-3", "setting": "[3]", "result": "completely abolished; also recorded: completely blocked"}, {"measurement": "enhancement of the biological activity of IL-32 following cleavage by PR-3", "setting": "[2]; action of PMSF", "result": "blocked"}]}
{"molecule": "O=c1oc(Cl)c(Cl)c2ccccc12", "note": "[3,4-dichloroisocoumarin]", "values": [{"measurement": "kI for PR-3", "setting": "[1]", "result": 2600, "unit": "M⁻¹ s⁻¹"}]}
{"molecule": "Cc1ccc(C(=O)Nc2ccc(S(=O)(=O)O)c3cc(S(=O)(=O)O)cc(S(=O)(=O)O)c23)cc1NC(=O)c1cccc(NC(=O)Nc2cccc(C(=O)Nc3cc(C(=O)Nc4ccc(S(=O)(=O)O)c5cc(S(=O)(=O)O)cc(S(=O)(=O)O)c45)ccc3C)c2)c1", "note": "[Suramin]", "values": [{"measurement": "Ki", "setting": "[1]; Cadene, 1997", "result": 500, "unit": "nM"}]}
{"molecule": "B1", "values": [{"measurement": "rate of PR-3 inhibition", "setting": "[1]; Cooley, 2001", "result": "> 10^7 M^−1·s^−1"}]}
{"molecule": "B2", "values": [{"measurement": "incubation time to complete disappearance of the 20 kDa intact IL-32 band", "setting": "[4]; 37° C., cleaved into 16 and 13 kDa fragments", "result": 5, "unit": "min"}]}
{"molecule": "B3", "values": [{"measurement": "potency of IL-32 cleavage, commercial vs urinary PR-3", "setting": "[4]; incubation 0, 1 and 5 min", "result": "more potent than the urinary PR-3; also recorded: more efficient than the urine-derived PR-3"}]}
{"molecule": "B4", "values": [{"measurement": "MIP-2 secreted into the cell culture medium", "setting": "[5]", "result": "no effect"}, {"measurement": "digestion of IL-32 after overnight incubation with PR-3", "setting": "[4]; overnight at 4° C., no product higher than the 10 kDa marker", "result": "complete digestion"}, {"measurement": "IL-8 secreted into the cell culture medium", "setting": "[6]", "result": "did not induce IL-8"}]}
{"molecule": "B5", "values": [{"measurement": "biological activity compared to the intact IL-32 protein", "setting": "[2]", "result": "enhanced biological activity"}]}
{"molecule": "B6", "values": [{"measurement": "MIP-2 secreted into the cell culture medium", "setting": "[5]", "result": "induced the secretion of MIP-2"}, {"measurement": "IL-8 secreted into the cell culture medium", "setting": "[6]", "result": "induced the secretion of IL-8"}]}
